The source of these data is IntAct's records for PubMed 29892012.

Sequences and labels used below:
B1: Ribonuclease inhibitor (Homo sapiens), P13489 (parent)
chain: MSLDIQSLDIQCEELSDARWAELLPLLQQCQVVRLDDCGLTEARCKDISSALRVNPALAELNLRSNELGDVGVHCVLQGLQTPSCKIQKLSLQNCCLTGAGCGVLSSTLRTLPTLQELHLSDNLLGDAGLQLLCEGLLDPQCRLEKLQLEYCSLSAASCEPLASVLRAKPDFKELTVSNNDINEAGVRVLCQGLKDSPCQLEALKLESCGVTSDNCRDLCGIVASKASLRELALGSNKLGDVGMAELCPGLLHPSSRLRTLWIWECGITAKGCGDLCRVLRAKESLKELSLAGNELGDEGARLLCETLLEPGCQLESLWVKSCSFTAACCSHFSSVLAQNRFLLELQISNNRLEDAGVRELCQGLGQPGSVLRVLWLADCDVSDSSCSSLAATLLANHSLRELDLSNNCLGDAGILQLVESVRQPGCLLEQLVLYDIYWSEEMEDRLQALEKDKPSLRVIS
B2: Palmitoyltransferase ZDHHC22 (Homo sapiens), Q8N966 (parent)
chain: MLALRLLNVVAPAYFLCISLVTFVLQLFLFLPSMREDPAAARLFSPALLHGALFLFLSANALGNYVLVIQNSPDDLGACQGASARKTPCPSPSTHFCRVCARVTLRHDHHCFFTGNCIGSRNMRNFVLFCLYTSLACLYSMVAGVAYISAVLSISFAHPLAFLTLLPTSISQFFSGAVLGSEMFVILMLYLWFAIGLACAGFCCHQLLLILRGQTRHQVRKGVAVRARPWRKNLQEVFGKRWLLGLLVPMFNVGSESSKQQDK
partner: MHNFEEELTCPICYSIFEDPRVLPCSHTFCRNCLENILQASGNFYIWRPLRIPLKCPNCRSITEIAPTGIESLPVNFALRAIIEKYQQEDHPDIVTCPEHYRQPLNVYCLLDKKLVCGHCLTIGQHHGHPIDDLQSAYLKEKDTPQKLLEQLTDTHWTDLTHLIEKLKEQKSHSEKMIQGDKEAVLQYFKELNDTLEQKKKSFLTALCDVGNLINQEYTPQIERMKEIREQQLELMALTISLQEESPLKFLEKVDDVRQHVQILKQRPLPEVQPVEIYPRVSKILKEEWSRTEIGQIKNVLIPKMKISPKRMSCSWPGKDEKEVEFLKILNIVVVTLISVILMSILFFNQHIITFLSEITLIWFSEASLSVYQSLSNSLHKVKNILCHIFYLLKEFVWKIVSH
B3: Serine hydroxymethyltransferase, mitochondrial (Homo sapiens), P34897 (parent)
chain: MLYFSLFWAARPLQRCGQLVRMAIRAQHSNAAQTQTGEANRGWTGQESLSDSDPEMWELLQREKDRQCRGLELIASENFCSRAALEALGSCLNNKYSEGYPGKRYYGGAEVVDEIELLCQRRALEAFDLDPAQWGVNVQPYSGSPANLAVYTALLQPHDRIMGLDLPDGGHLTHGYMSDVKRISATSIFFESMPYKLNPKTGLIDYNQLALTARLFRPRLIIAGTSAYARLIDYARMREVCDEVKAHLLADMAHISGLVAAKVIPSPFKHADIVTTTTHKTLRGARSGLIFYRKGVKAVDPKTGREIPYTFEDRINFAVFPSLQGGPHNHAIAAVAVALKQACTPMFREYSLQVLKNARAMADALLERGYSLVSGGTDNHLVLVDLRPKGLDGARAERVLELVSITANKNTCPGDRSAITPGGLRLGAPALTSRQFREDDFRRVVDFIDEGVNIGLEVKSKTAKLQDFKSFLLKDSETSQRLANLRQRVEQFARAFPMPGFDEH
partner: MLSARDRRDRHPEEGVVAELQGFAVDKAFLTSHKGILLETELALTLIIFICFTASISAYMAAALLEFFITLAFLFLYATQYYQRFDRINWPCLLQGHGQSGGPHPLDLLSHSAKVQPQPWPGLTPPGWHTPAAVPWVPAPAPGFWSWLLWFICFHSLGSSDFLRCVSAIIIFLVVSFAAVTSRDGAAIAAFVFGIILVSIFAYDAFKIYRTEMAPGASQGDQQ
B4: CD151 antigen (Homo sapiens), P48509 (parent)
chain: MGEFNEKKTTCGTVCLKYLLFTYNCCFWLAGLAVMAVGIWTLALKSDYISLLASGTYLATAYILVVAGTVVMVTGVLGCCATFKERRNLLRLYFILLLIIFLLEIIAGILAYAYYQQLNTELKENLKDTMTKRYHQPGHEAVTSAVDQLQQEFHCCGSNNSQDWRDSEWIRSQEAGGRVVPDSCCKTVVALCGQRDHASNIYKVEGGCITKLETFIQEHLRVIGAVGIGIACVQVFGMIFTCCLYRSLKLEHY
B5: Transmembrane protein 218 (Homo sapiens), A2RU14 (parent)
chain: MAGTVLGVGAGVFILALLWVAVLLLCVLLSRASGAARFSVIFLFFGAVIITSVLLLFPRAGEFPAPEVEVKIVDDFFIGRYVLLAFLSAIFLGGLFLVLIHYVLEPIYAKPLHSY
B6: Heterogeneous nuclear ribonucleoprotein F (Homo sapiens), P52597 (parent)
chain: MMLGPEGGEGFVVKLRGLPWSCSVEDVQNFLSDCTIHDGAAGVHFIYTREGRQSGEAFVELGSEDDVKMALKKDRESMGHRYIEVFKSHRTEMDWVLKHSGPNSADSANDGFVRLRGLPFGCTKEEIVQFFSGLEIVPNGITLPVDPEGKITGEAFVQFASQELAEKALGKHKERIGHRYIEVFKSSQEEVRSYSDPPLKFMSVQRPGPYDRPGTARRYIGIVKQAGLERMRPGAYSTGYGGYEEYSGLSDGYGFTTDLFGRDLSYCLSGMYDHRYGDSEFTVQSTTGHCVHMRGLPYKATENDIYNFFSPLNPVRVHIEIGPDGRVTGEADVEFATHEEAVAAMSKDRANMQHRYIELFLNSTTGASNGAYSSQVMQGMGVSAAQATYSGLESQSVSGCYGAGYSGQNSMGGYD
B7: Cysteine/serine-rich nuclear protein 2 (Homo sapiens), Q9H175 (parent)
chain: MDAFTGSGLKRKFDDVDVGSSVSNSDDEISSSDSADSCDSLNPPTTASFTPTSILKRQKQLRRKNVRFDQVTVYYFARRQGFTSVPSQGGSSLGMAQRHNSVRSYTLCEFAQEQEVNHREILREHLKEEKLHAKKMKLTKNGTVESVEADGLTLDDVSDEDIDVENVEVDDYFFLQPLPTKRRRALLRASGVHRIDAEEKQELRAIRLSREECGCDCRLYCDPEACACSQAGIKCQVDRMSFPCGCSRDGCGNMAGRIEFNPIRVRTHYLHTIMKLELESKRQVSRPAAPDEEPSPTASCSLTGAQGSETQDFQEFIAENETAVMHLQSAEELERLKAEEDSSGSSASLDSSIESLGVCILEEPLAVPEELCPGLTAPILIQAQLPPGSSVLCFTENSDHPTASTVNSPSYLNSGPLVYYQVEQRPVLGVKGEPGTEEGSASFPKEKDLNVFSLPVTSLVACSSTDPAALCKSEVGKTPTLEALLPEDCNPEEPENEDFHPSWSPSSLPFRTDNEEGCGMVKTSQQNEDRPPEDSSLELPLAV
B8: Syntaxin-3 (Homo sapiens), Q13277 (parent)
chain: MKDRLEQLKAKQLTQDDDTDAVEIAIDNTAFMDEFFSEIEETRLNIDKISEHVEEAKKLYSIILSAPIPEPKTKDDLEQLTTEIKKRANNVRNKLKSMEKHIEEDEVRSSADLRIRKSQHSVLSRKFVEVMTKYNEAQVDFRERSKGRIQRQLEITGKKTTDEELEEMLESGNPAIFTSGIIDSQISKQALSEIEGRHKDIVRLESSIKELHDMFMDIAMLVENQGEMLDNIELNVMHTVDHVEKARDETKKAVKYQSQARKKLIIIIVLVVVLLGILALIIGLSVGLN
partner: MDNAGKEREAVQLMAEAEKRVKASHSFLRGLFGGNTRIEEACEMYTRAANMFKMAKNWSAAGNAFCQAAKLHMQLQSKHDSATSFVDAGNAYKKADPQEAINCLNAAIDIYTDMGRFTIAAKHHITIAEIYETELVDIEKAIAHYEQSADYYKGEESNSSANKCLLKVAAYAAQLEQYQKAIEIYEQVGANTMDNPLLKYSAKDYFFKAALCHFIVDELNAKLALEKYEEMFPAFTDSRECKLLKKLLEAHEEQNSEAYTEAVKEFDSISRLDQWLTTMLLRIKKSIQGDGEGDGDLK
B9: Liprin-alpha-1 (Homo sapiens), Q13136 (parent)
chain: MMCEVMPTISEAEGPPGGGGGHGSGSPSQPDADSHFEQLMVSMLEERDRLLDTLRETQETLALTQGKLHEVGHERDSLQRQLNTALPQEFAALTKELNVCREQLLEREEEIAELKAERNNTRLLLEHLECLVSRHERSLRMTVVKRQAQSPAGVSSEVEVLKALKSLFEHHKALDEKVRERLRVALERCSLLEEELGATHKELMILKEQNNQKKTLTDGVLDINHEQENTPSTSGKRSSDGSLSHEEDLAKVIELQEIISKQSREQSQMKERLASLSSHVTELEEDLDTARKDLIKSEEMNTKLQRDVREAMAQKEDMEERITTLEKRYLAAQREATSVHDLNDKLENEIANKDSMHRQTEDKNRQLQERLELAEQKLQQTLRKAETLPEVEAELAQRVAALSKAEERHGNIEERLRQMEAQLEEKNQELQRARQREKMNEEHNKRLSDTVDKLLSESNERLQLHLKERMAALEDKNSLLREVESAKKQLEETQHDKDQLVLNIEALRAELDHMRLRGASLHHGRPHLGSVPDFRFPMADGHTDSYSTSAVLRRPQKGRLAALRDEPSKVQTLNEQDWERAQQASVLANVAQAFESDADVSDGEDDRDTLLSSVDLLSPSGQADAHTLAMMLQEQLDAINKEIRLIQEEKENTEQRAEEIESRVGSGSLDNLGRFRSMSSIPPYPASSLASSSPPGSGRSTPRRIPHSPAREVDRLGVMTLLPPSREEVRDDKTTIKCETSPPSSPRALRLDRLHKGALHTVSHEDIRDIRNSTGSQDGPVSNPSSSNSSQDSLHKAPKKKGIKSSIGRLFGKKEKGRPGQTGKEALGQAGVSETDNSSQDALGLSKLGGQAEKNRKLQKKHELLEEARRQGLPFAQWDGPTVVVWLELWVGMPAWYVAACRANVKSGAIMSALSDTEIQREIGISNPLHRLKLRLAIQEIMSLTSPSAPPTSRTTLAYGDMNHEWIGNEWLPSLGLPQYRSYFMECLVDARMLDHLTKKDLRGQLKMVDSFHRNSFQCGIMCLRRLNYDRKELERKREESQSEIKDVLVWSNDRVIRWILSIGLKEYANNLIESGVHGALLALDETFDFSALALLLQIPTQNTQARAVLEREFNNLLVMGTDRRFDEDDDKSFRRAPSWRKKFRPKDIRGLAAGSAETLPANFRVTSSMSSPSMQPKKMQMDGNVSGTQRLDSATVRTYSC
partner: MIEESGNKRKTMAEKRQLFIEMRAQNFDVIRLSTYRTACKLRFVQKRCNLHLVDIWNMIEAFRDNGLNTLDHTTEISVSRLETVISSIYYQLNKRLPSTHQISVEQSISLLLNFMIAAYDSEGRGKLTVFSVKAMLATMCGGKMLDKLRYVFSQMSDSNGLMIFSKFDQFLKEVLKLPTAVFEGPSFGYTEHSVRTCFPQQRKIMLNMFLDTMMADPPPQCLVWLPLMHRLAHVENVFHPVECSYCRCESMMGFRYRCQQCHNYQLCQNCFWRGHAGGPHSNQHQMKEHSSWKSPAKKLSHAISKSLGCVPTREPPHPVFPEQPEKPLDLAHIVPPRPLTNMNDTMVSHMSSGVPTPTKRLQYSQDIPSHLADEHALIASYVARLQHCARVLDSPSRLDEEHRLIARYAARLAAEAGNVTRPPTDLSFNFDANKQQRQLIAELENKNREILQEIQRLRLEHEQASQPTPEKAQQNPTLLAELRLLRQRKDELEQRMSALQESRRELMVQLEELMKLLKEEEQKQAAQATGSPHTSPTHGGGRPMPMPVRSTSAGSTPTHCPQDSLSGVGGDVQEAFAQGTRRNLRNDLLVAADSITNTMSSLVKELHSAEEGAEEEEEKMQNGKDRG
B10: Transmembrane protein 218 (Homo sapiens), A2RU14 (parent)
chain: B5 chain
partner: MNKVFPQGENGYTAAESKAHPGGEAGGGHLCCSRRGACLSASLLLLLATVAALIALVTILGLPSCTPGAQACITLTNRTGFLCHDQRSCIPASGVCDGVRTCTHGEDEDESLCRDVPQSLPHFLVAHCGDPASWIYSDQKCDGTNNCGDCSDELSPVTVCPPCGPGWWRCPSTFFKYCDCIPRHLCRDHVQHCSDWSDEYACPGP

The variants in one assay derive from B1. The following applies: with sdcb1_human SDCBP.
As to V358M, the “effect of a mutation on the interaction” value was “with no effect”.

Variants of B2 are the subject of a further assay. The following applies: with tri59_human TRIM59, Q8IWR1.
As to L209F, the “effect of a mutation on the interaction” value is given as “with no effect”.

The variants in another assay derive from B3. The following applies: with cklf5_human CMTM5, Q96DZ9.
Take V112M: the “effect of a mutation on the interaction” value is on record as “disrupting interaction strength”.

Variants of B4 are the subject of another assay. The following applies: with astrc_human GRAMD1C.
Regarding S158T, the “effect of a mutation on the interaction” value was “with no effect”.

The next assay covers variants of B4. The following applies: with astrc_human GRAMD1C. The source holds these as a separate data set.
On to A67V, for which the “effect of a mutation on the interaction” value is “with no effect”.

The variants in the next assay derive from B5. The following applies: with pcna_human PCNA.
For P66S, the “effect of a mutation on the interaction” value is recorded as “with no effect”.

Another assay covers variants of B6. The following applies: with hnrl1_human HNRNPUL1, Q9BUJ2.
Sequence of hnrl1_human HNRNPUL1, Q9BUJ2 (Q9BUJ2 whole entry): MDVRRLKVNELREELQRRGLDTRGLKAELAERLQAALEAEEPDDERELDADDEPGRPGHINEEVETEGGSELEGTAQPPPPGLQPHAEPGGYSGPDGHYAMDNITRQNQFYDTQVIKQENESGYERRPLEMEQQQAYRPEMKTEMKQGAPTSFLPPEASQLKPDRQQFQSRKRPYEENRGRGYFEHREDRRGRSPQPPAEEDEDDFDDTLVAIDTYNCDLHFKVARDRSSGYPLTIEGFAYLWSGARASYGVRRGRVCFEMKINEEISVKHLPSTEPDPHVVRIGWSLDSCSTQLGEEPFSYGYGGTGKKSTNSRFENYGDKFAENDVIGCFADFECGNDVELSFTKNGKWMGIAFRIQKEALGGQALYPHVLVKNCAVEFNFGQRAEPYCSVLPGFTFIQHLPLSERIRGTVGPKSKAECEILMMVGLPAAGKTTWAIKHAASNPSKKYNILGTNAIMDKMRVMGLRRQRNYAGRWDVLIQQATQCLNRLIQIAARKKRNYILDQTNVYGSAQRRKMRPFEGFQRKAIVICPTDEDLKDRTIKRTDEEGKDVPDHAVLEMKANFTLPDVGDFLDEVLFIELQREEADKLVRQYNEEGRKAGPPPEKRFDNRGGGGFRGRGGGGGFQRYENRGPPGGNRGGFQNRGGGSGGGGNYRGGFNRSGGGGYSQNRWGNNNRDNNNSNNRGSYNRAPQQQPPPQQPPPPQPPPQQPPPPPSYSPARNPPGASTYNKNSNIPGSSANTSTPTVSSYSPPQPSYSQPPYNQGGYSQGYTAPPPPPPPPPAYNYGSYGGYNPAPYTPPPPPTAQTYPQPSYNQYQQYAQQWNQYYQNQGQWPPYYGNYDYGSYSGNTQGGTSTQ
Take T48A: the “effect of a mutation on the interaction” value is listed as “with no effect”.

Variants of B7 are the subject of another assay. The following applies: with pp1g_human PPP1CC.
As for Q382E, the “effect of a mutation on the interaction” value was “with no effect”.

The next assay covers variants of B8. The following applies: with snab_human NAPB.
Regarding K199E, the “effect of a mutation on the interaction” value is listed as “disrupting interaction strength”.

In the next assay the parent is B9. The following applies: with dtnb_human DTNB.
As to L330F, the “effect of a mutation on the interaction” value is listed as “with no effect”.

The variants in the next assay derive from B9. The following applies: with dtnb_human DTNB. The source holds these as a separate data set.
P389L: the “effect of a mutation on the interaction” value is reported as “with no effect”.

In the next assay the parent is B10. The following applies: with lrad1_human LDLRAD1, Q5T700.
Turning to P66S, the “effect of a mutation on the interaction” value was “with no effect”.
